assay: soluble on expression in E. coli; label from the status in PepcDB or PDB records

| Sequence | soluble on expression in E. coli |
| --- | --- |
| MGDNGTGIECIGLPPGFSIDYYAEGVEGARSMALSPEGTLFAGSRGAGKLYAMTDRNGDNKADDVLVIAEGLDMPNGVAFRNGSLYVAEISRVLRYDDIEARLENPPDPAVVRGDFPADRSHGWKYIKFGPDGKLYVPVGMPCNVCNLEEEEERYGTMMRMEPDGSQPEIFARGIRNTVGFAWNPETGELWFTDNGRDWLGDDLPPDELNRAPVPGMHFGFPYCHGKDTPDPEYGEFRNCSEFTAPEVELGPHVAALGMTFYNGSMFPEEYRNQIFIAEHGSWNRKIPIGYRVSLVRLENGTPVSYEPFADGWLQGLASWGRPVDVLVMPDGALLVSDDKNNAIYRISLEHHHHHH | not soluble |
| MKKIEIFDPAMCCPTGLCGTNINPELMRIAVVIESLKKQGIIVTRHNLRDEPQVYVSNKTVNDFLQKHGADALPITLVDGEIAVSQTYPTTKQMSEWTGVNLD | soluble |
| MSDHQDGMKLEDIERQFLDVAQREGGLEAIQPTTGPLENEENLKSSTGGGGGEDDNDRKKRKRSRSRDRDTRRRSRSRDRGERRGGGGGGDRDRSRSRERRRGGGGRDEPRRRGGDDEARSRREPEPQKPREPKKYRFWDVPPTGFETTTPMEYKNMQAAGQVPRGSVQSAVPVVGPSVTCQSRRLYVGNIPFGCNEEAMLDFFNQQMHLCGLAQAPGNPILLCQINLDKNFAFIEFRSIDETTAGMAFDGINFMGQQLKVRRPRDYQPSQNTFDMNSRMPVSTIVVDSANKIFIGGLPNYLTEDQVKELLCSFGPLKAFSLNVDSQGNSKGYAFAEYLDPTLTDQAIAGLNGMQLGDKQLVVQLACANQQRHNTNLPNSASAIAGIDLSQGAGRATEILCLMNMVTEDELKADDEYEEILEDVRDECSKYGIVRSLEIPRPYEDHPVPGVGKVFVEFASTSDCQRAQAALTGRKFANRTVVTSYYDVDKYHNRQF | soluble |
| MAADPVFKEALQCIRCASCTNVCPVFQLVSGQVYGYIYNGGIGSVLTAFFNSLEDAVDPQSLCIGCRRCAEVCPAKINIPDLVLKLRERVVTKQGLEHHHHHH | not soluble |
| MKHIHIIGIGGTFMGGLAAIAKEAGFEVSGCDAKMYPPMSTQLEALGIDVYEGFDAAQLDEFKADVYVIGNVAKRGMDVVEAILNLGLPYISGPQWLSENVLHHHWVLGVAGTHGKTTTASMLAWVLEYAGLAPGFLIGGVPENFGVSARLPQTPRQDPNSQSPFFVIEADEYDTAFFDKRSKFVHYRPRTAVLNNLEFDHADIFADLGAIQTQFHYLVRTVPSEGLIVCNGRQQSLQDTLDKGCWTPVEKFGTEHGWQAGEANADGSFDVLLDGKTAGRVKWDLMGRHNRMNALAVIAAARHVGVDIQTACEALGAFKNVKRRMEIKGTANGITVYDDFAHHPTAIETTIQGLRQRVGGARILAVLEPRSNTMKLGTMKSALPVSLKEADQVFCYAGGVDWDVAEALAPLGGRLNVGKDFDAFVAEIVKNAEVGDHILVMSNGGFGGIHGKLLEALR | soluble |
| MHHHHHHANASETNVGPMAPRVCVVGSVNMDLTFVVDALPRPGETVLAASLTRTPGGKGANQAVAAARAGAQVQFSGAFGDDPAAAQLRAHLRANAVGLDRTVTVPGPSGTAIIVVDASAENTVLVAPGANAHLTPVPSAVANCDVLLTQLEIPVATALAAARAAQSADAVVMVNASPAGQDRSSLQDLAAIADVVIANEHEANDWPSPPTHFVITLGVRGARYVGADGVFEVPAPTVTPVDTAGAGDVFAGVLAANWPRNPGSPAERLRALRRACAAGALATLVSGVGDCAPAAAAIDAALRANRHNGS | soluble |
| TARELLDADRGRDSMVAAAYHSGTLSGKTVTEAARQGDVFAIEVFDDFAEWMGRALSIVCDVLDPGQIVIGGGLSTSSDLFLEKATQHMAQQIVGAGYRPLPTVVCAELGGDAGMIGVSDLARRRV | not soluble |
| MWSVTDSPLDDAIQEAKSAAQKAGFDTETFAAVQSKEGRTSFAFELEGLGSASSVSELEEAIEQIEGVDAKIVYPSAMAWISASRTLDPTLIVDAFQQHGVTATLTDSSLRRRLAWTDVEEGRYRRARARRFGSRVDEESRRFEIARREGFLHKRDETTRVVETTEVLFTARSLMTKAR | not soluble |
| MSCINLPTVLPGSPSKTRGQIQVILGPMFSGKSTELMRRVRRFQIAQYKCLVIKYAKDTRYSSSFCTHDRNTMEALPACLLRDVAQEALGVAVIGIDEGQFFPDIVEFCEAMANAGKTVIVAALDGTFQRKPFGAILNLVPLAESVVKLTAVCMECFREAAYTKRLGTEKEVEVIGGADKYHSVCRLCYFKKASGQPAGPDNKENCPVPGKPGEAVAARKLFAPQQILQCSPAN | not soluble |
| MGSDKIHHHHHHMYLIRKKYITSLENILKKEGVIVDALSNDATIRYRSEEIGDEFTSVYNIQKLLNIAYASQGKESFGLLSYEYFHPGDYDIVNYIMMSSDNLLHALECLCRFSRLLYSGCQLTLDKKNTNTYCIGFTYLYPQDKNKEITRQFHELTVASLLAYCQWLTAANFTHFSSMEFSYPQPYGIRKYETLFACPMTFGTHRNCVYLNAEILLMPLVTSNASLFKLHEKHATCLIDILFNKTIKSRVRDSINKKLETGSCNIHSVASDLFMTPRTLQRRLEEEGAYFKDILEDVKMNLAEYYLIYSQYSLSQVAELVGYKDLSSFHRACLRWFRSSPGFFRERGCKKACLPMK | not soluble |
| MISATYRLQLNKNFNFGDVIDNLWYFKDLGVSHLYLSPVLMASPGSNHGYDVIDHSRINDELGGEKEYRRLIETAHTIGLGIIQDIVPNHMAVNSLNWRLMDVLKMGKKSKYYTYFDFFPEDDKIRLPILGEDLDTVISKGLLKIVKDGDEYFLEYFKWKLPLTEVGNDIYDTLQKQNYTLMSWKNPPSYRRFFDVNTLIGVNVEKDHVFQESHSKILDLDVDGYRIDHIDGLYDPEKYINDLRSIIKNKIIIVEKILGFQEELKLNSDGTTGYDFLNYSNLLFNFNQEIMDSIYENFTAEKISISESIKKIKAQIIDELFSYEVKRLASQLGISYDILRDYLSCIDVYRTYANQIVKECDKTNEIEEATKRNPEAYTKLQQYMPAVYAKAYEDTFLFRYNRLISINEVGSDLRYYKISPDQFHVFNQKRRGKITLNATSTHDTKFSEDVRMKISVLSEFPEEWKNKVEEWHSIINPKVSRNDEYRYYQVLVGSFYEGFSNDFKERIKQHMIKSVREAKINTSWRNQNKEYENRVMELVEETFTNKDFIKSFMKFESKIRRIGMIKSLSLVALKIMSAGIPDFYQGTEIWRYLLTDPDNRVPVDFKKLHEILEKSKKFEKNMLESMDDGRIKMYLTYKLLSLRKQLAEDFLKGEYKGLDLEEGLCGFIRFNKILVIIKTKGSVNYKLKLEEGAIYTDVLTGEEIKKEVQINELPRILVRM | soluble |
| WAALHEGLNIRQAEVHGMSQRGGAVQSHLRISDQELFADLIGLGTGDLILSVEPLEALRYLPYLAPDGRIVTSLDPFVNMTGYPPMEEIEAELGKTGRPVLVHAADLAKDAGSARASNMVMLGAGAPFAGIAPSKLEASIEALFSTKGQEVVDINIRAFRKGLQL | not soluble |
| MAEPKWPSSAKTLPFKFMKEARNPCTRAQKLCSTHRRAAAPPSFSVHLTQKSENSSSEESDHQFASPTSPRPSSSDSFGPSAAPSTSLSPPFLSPSYSMDYIIEAMTSSSSTSPVPPPVSASRPVAPVVARVEGLRAVPVGHRRQHSSPGHLQQFQQELHARHHHANITRLNKKRRNTDTGYDPEARPPKFKHRSPLDEETILVSKTFAIPKYRKGALPAAAAAVVRNEALMDSSDSSDSQSTVKSLDGWRTRTSRSIMTTPEAFSRVRHISITFGEQQHDIDTDHSNQHFGSPSSLHSSLPRAFSPPHKISKARRRQLAVTTSLSETSAFPIPSSLKARSRMSSMSSTQADDEHPISMQNMRNIALGILVPIKQRFFLMQHIPLIEAEMSRFESRVVTAALHPSTFLQNISKSWEELTETVCQLHNAPRLRHPYWLALNEKCHLDGRTLATEFCEQLAYLVRRYDRKEAGYFLSNLVTALLMHHMSWVASVASPPLHNADSKDQIDENSLFGMMSSGAPTVGYNALMAQYLEISGACGNMRSAKICVVGEDLEVLASVCSVLSFFIRCSAVQHVDNDKMWEVPTEQPFSPCDVSNSPSTSCAHQHQQQQQLKNGYQHPEETSSVAMMRRLRNNNQMDTSSTPSTSTAAALLDADVEMVVQTTTEITSTTTTTPRHHHLHHLHSVTIDRLDFPCCPTIADDADMWVPQRPNSEGLGRSMFAGPLNNYCSHFVLSAVQKTDTNMPEVYSRMFDEVRCTDFPCHRSATATPSQSTSSMCDPAMNPENVLIIADIEQLTVKVLSTEGSDEVTSPSESIVAMLEQFVGIHNAVPANAEFLVGIIEDSLAHIVGKSLTLVELVRSDQTVRIQGSERAKKSKILAKIEILLAVCPEIGNFSKFEFPSYRALK | not soluble |
